From patent US20130259876A1 (Regeneron, published 2013)
Residue numbers refer to the chain shown, from its start.

B1: H4H2480N (antibody, V domains shown)
VH: QVQLQQWGAGLLKPSETLSLTCAVYGGSFSGYYWSWIRQTPGKGLEWIGEISHSGNNNYNPSLKSRVTMSKDTSKNQFSLKLSSVTAADTAVYYCARIQLWLRGNDYYGMDVWGQGITVTVSS
VL: DIQMTQSPSSLSASVGDRVTITCRASQGIRNDLGWYQQKPGKAPKRLIYAASSLQGGVPSRFSGSGSGTEFTLTISSLQPEDFATYYCLQHNSYPWTFGQGTKVEIK
B2: H4H2530S (antibody, V domains shown)
VH: EVQLVESGPGLVKPSQTLSLTCTVSGGSINSGGSYWSWIRQHPGKGLEWIGYIYSSGNTYYKPSLKSRVTISLDTSKNQFSLKMSSVTAADTAIYYCARDPRGITGTHYFDYWGQGTTVTVSS
VL: EIVLTQSPGTLSLSPGERATLSCRTSQSISNKYLAWYQQKPGQAPRLLIYGASTRATGIPDRFSGSGSGTDFTLTISRLEPEDFAVYYCQQFGTSLFTFGPGTKVEIK
B3: H4H2524P (antibody, V domains shown)
VH: QVQLQESGPGLVKPSQTLSLTCTVSGGSISSDGYYWSWIRQHPGKGLEWIGYIYYSGNTYYNPSLKSRVTISVDTSKNHFSLKLSSVTAADTAVYYCTRDPRGITGTHYFDYWGQGTLVTVSS
VL: B2 VL with I29V, N31S, K32S, T54S, E106D
B4: H4H2497N (antibody, V domains shown)
VH: QVQLVESGGGVVQPGRSLRLSCAASGFTFSTYGMDWVRQAPGKGLEWVAVISYDGRNKNYVDSVKGRFTISRDNSKNTLYLQMNSLRAEDSAVYFCAKEGGLGTWYFDLWGRGTLVTVSS
VL: not shown
B5: H4H2718N (antibody, V domains shown)
VH: EVQLVESGGGLVQPGRSLRLSCAASGFTFDEYAMHWVRQVPGKGLEWVSGISRNSGTIGYVDSVLGRFTISRDNAKNSLYLQMNSLRPEDTALYYCAKDKGWLLGMDVWGQGTTVTVSS
VL: B1 VL with G28A, G56S, T72A, H91Y, P95L, W96Y, V104L

Molecular target: T1, scHLA-B27-mmH (engineered HLA-B*27 ectodomain in-line fusion protein) (human (HLA-B*2705, beta-2 …))
T1 construct: also called soluble HLA-B*27 fusion protein
Experiment: SPR (Biacore), mAb captured, 25 C, PBS pH 7.2; 25 C, PBS pH 7.2

For B1, the t1/2 was 18 min.

Molecular target: T1, scHLA-B27-mmH (engineered HLA-B*27 …)
Experiment: SPR (Biacore), mAb captured, 25 C, HBST pH 7.4

Compared with B2, B3 is 20-fold higher in Kd: 1.22 nM for the first, 23.9 nM for the second.

B4 and B1 are within 1.5-fold of each other in Kd: 33.6 nM for the first, 24 nM for the second.

For B5, the Kd was 44.9 nM.

Compared with B2, B3 is 8-fold lower in t1/2: 16 min for the first, 2 min for the second.

B4 and B1 are within 1.5-fold of each other in t1/2: 12 min for the first, 9 min for the second.

B5 gave a t1/2 of 4 min.

Molecular target: T1, scHLA-B27-mmH (engineered HLA-B*27 …)
Experiment: SPR (Biacore), 25 C, PBS pH 7.2

Going from B2 to B3, the Kd rises from 0.668 nM to 69 nM (100-fold). The first binds more tightly here.

First: B4
Second: B5
The Kd of the first is 4.4-fold lower: 22.3 nM for the first, 97.3 nM for the second.

Molecular target: T1, scHLA-B27-mmH (engineered HLA-B*27 …)
Experiment: SPR (Biacore), 25 C, PBS pH 5.75

Compared with B2, B3 is 19-fold higher in Kd: 10.7 nM for the first, 204 nM for the second. The first binds more tightly here.

First: B4
Second: B1
The Kd of the first is 3.8-fold lower: 33.9 nM for the first, 129 nM for the second. The first binds more tightly here.

Work on B5 yielded a Kd of 97.5 nM.

Molecular target: T1, scHLA-B27-mmH (engineered HLA-B*27 …)
Experiment: SPR (Biacore), mAb captured, 37 C, HBST pH 7.4

Compared with B2, B3 is 14-fold higher in Kd: 1.88 nM for the first, 26.8 nM for the second. The first binds more tightly here.

Compared with B4, B5 is 12-fold lower in Kd: 337 nM for the first, 29 nM for the second.

Compared with B2, B3 is 3-fold lower in t1/2: 6 min for the first, 2 min for the second.

B4 and B5 are the same in t1/2: 3 min for the first, 3 min for the second.

Molecular target: T1, scHLA-B27-mmH (engineered HLA-B*27 …)
Experiment: SPR (Biacore), mAb captured, 25 C, PBS pH 7.2

Going from B2 to B3, the Kd rises from 0.668 nM to 69 nM (100-fold). The first binds more tightly here.

Compared with B4, B5 is 4.4-fold higher in Kd: 22.3 nM for the first, 97.3 nM for the second. The first binds more tightly here.

First: B2
Second: B3
The t1/2 of the first is 43-fold higher: 43 min for the first, 1 min for the second.

Going from B4 to B5, the t1/2 falls from 23 min to 4 min (5.8-fold).

Molecular target: T1, scHLA-B27-mmH (engineered HLA-B*27 …)
Experiment: SPR (Biacore), mAb captured, 25 C, PBS pH 5.75

First: B2
Second: B3
The Kd of the first is 19-fold lower: 10.7 nM for the first, 204 nM for the second.

Compared with B4, B1 is 3.8-fold higher in Kd: 33.9 nM for the first, 129 nM for the second.

B5 gave a Kd of 97.5 nM.

First: B2
Second: B3
The t1/2 of the first is 7.5-fold higher: 15 min for the first, 2 min for the second.

First: B4
Second: B1
The t1/2 of the first is 2.4-fold higher: 12 min for the first, 5 min for the second.

In the case of B5, the t1/2 is reported as 4 min.
